From patent US6899879

Target: human CD40 antigen on the surface of human B cells (human) (UniProt P25942)
Test: cell-based or functional assay

Chain of UniProt P25942 (P25942 21-277): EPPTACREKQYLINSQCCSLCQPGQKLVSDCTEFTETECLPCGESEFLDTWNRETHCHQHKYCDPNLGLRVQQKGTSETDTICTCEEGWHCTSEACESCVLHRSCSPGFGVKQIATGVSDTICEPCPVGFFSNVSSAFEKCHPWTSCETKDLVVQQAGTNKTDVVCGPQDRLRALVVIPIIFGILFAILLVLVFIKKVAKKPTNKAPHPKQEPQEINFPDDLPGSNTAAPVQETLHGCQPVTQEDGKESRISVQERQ

50% of maximal inhibition of human T-cell induced immunoglobulin production by human B cells: 30 ng/mL | concentration giving complete inhibition of EL4B5-induced human B-cell proliferation: 10 ng/mL | half-maximal inhibition of EL4B5-induced human B-cell proliferation: 1 ng/mL | percentage of inhibition of immunoglobulin production by human B cells: 40 to 70%
Substance: anti-CD40 monoclonal antibody 5D12
